Values belong to the binder of their own block, whether it stands above or below them.
What was measured:
[1] = target: the molecule itself; assay: gel filtration of the E. coli-made protein
Description: Since hSTAU1^{55(R)}Δ(SSM-‘RBD’5)-FLAG still had residual dimerization activity (10% that of hSTAU1^{55(R)}-FLAG), and in view of reports that hSTAU1 ‘RBD’2 amino acids 37-79 can interact with full-length hSTAU1, the ability of E. coli-produced ‘RBD’2-RBD3 amino acids 43-173 to dimerize was assayed.
Size standards were prepared by dissolving dried proteins in 2 ml of GF buffer containing 2.97 mM DTT. Proteins consisted of 3.8 mg of conalbumin (75 kDa), 2.3 mg carbonic anhydrase (29 kDa) and 6.7 mg aprotinin(6.5 kDa), each from the Low Molecular Weight Gel Filtration Calibration Kit (GE Healthcare; #28-4038-41), and 6 mg of lysozyme (14.3 kDa) (Sigma; #L6876-10G). The dissolved solution (1 ml, determined using a 1 ml loop) was loaded onto a 120 ml HiLoad™Superdex™ 200 16/60 prep-grade column (GE Healthcare) and separated at a 1 ml/min flow rate using the BioLogicDuoFlow™ FPLC system. For size estimations, gel-filtration of SSM-‘RBD’5 (WT), SSM-‘RBD’5 (E424H, D427V) and ‘RBD’2-RBD3 was performed as described for the size standards. SSM-‘RBD’5 (WT) was loaded at 8 mg/ml, SSM-‘RBD’5 (E424H, D427V) was loaded, and ‘RBD’2-RBD3 was loaded at 6 mg/ml.

hSTAU1^55-HA3 [2] = target: T1, hSTAU1^55-HA3 (human, UniProt O95793-2 1-496); assay: anti-FLAG and anti-HA co-IP from HEK293T lysates with RNase A
T1 construct: also called STAU1-HA3
T1 sequence (looked up): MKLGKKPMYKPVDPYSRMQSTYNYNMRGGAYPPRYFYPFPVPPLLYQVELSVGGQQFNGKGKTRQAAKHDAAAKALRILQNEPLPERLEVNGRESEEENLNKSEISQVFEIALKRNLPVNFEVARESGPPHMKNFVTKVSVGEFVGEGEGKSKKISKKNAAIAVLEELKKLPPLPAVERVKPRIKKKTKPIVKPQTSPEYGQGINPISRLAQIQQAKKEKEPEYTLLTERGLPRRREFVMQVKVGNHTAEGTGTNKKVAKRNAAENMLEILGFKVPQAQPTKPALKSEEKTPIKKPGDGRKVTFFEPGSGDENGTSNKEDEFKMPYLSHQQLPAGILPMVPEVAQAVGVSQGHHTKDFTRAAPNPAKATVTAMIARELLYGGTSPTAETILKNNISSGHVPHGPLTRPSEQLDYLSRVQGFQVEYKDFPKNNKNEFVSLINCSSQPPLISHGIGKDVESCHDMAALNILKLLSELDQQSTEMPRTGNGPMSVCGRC
From the text: (§1) To test this idea, HEK293T cells were transiently transfected with hSTAU1⁵⁵-HA₃ and one of three siRNA-resistant (R) plasmids that produce either hSTAU1^{55(R)}-FLAG, hSTAU1^{55(R)}Δ(C-Term)-FLAG or hSTAU1^{55(R)}Δ(SSM-‘RBD’5)-FLAG, each of which was expressed at the level of cellular hSTAU 1. hSTAU1^{55(R)}Δ(C-Term)-FLAG lacks all amino acids C-terminal to ‘RBD’5 Δ1. Cell lysates were immunoprecipitated in the presence of RNaseA using anti-FLAG or, as a negative control, mIgG.

hSTAU1^55-HA3 [3] = target: T1, hSTAU1^55-HA3; assay: anti-HA co-IP (reverse direction) from HEK293T lysates, quantitated western blot
From the text: as §1, with “Cell lysates were immunoprecipitated in the presence of RNaseA using anti-FLAG or, as a negative control, mIgG.” left out
(§2) The level of hSTAU1⁵⁵-HA₃ or cellular hUPF1 that co-immunoprecipitated with hSTAU1^{55(R)}Δ(SSM-‘RBD’5)—FLAG was only ˜10% the level of, respectively, hSTAU1⁵⁵-HA₃ or cellular hUPF1 that co-immunoprecipitated with hSTAU1^{55(R)}-FLAG or hSTAU1^{55(R)}Δ(C-Term)-FLAG.

hSTAU1^55-HA3 [4] = target: T1, hSTAU1^55-HA3; assay: anti-FLAG co-IP from HEK293T lysates with RNase A, quantitated western blot
From the text: as §1, §2

cellular hUPF1 = target: T2, cellular hUPF1 (human, UniProt Q92900-2 1-1118, limits assumed); assay: as above
T2 construct: Endogenous protein detected by western blotting
T2 sequence (looked up): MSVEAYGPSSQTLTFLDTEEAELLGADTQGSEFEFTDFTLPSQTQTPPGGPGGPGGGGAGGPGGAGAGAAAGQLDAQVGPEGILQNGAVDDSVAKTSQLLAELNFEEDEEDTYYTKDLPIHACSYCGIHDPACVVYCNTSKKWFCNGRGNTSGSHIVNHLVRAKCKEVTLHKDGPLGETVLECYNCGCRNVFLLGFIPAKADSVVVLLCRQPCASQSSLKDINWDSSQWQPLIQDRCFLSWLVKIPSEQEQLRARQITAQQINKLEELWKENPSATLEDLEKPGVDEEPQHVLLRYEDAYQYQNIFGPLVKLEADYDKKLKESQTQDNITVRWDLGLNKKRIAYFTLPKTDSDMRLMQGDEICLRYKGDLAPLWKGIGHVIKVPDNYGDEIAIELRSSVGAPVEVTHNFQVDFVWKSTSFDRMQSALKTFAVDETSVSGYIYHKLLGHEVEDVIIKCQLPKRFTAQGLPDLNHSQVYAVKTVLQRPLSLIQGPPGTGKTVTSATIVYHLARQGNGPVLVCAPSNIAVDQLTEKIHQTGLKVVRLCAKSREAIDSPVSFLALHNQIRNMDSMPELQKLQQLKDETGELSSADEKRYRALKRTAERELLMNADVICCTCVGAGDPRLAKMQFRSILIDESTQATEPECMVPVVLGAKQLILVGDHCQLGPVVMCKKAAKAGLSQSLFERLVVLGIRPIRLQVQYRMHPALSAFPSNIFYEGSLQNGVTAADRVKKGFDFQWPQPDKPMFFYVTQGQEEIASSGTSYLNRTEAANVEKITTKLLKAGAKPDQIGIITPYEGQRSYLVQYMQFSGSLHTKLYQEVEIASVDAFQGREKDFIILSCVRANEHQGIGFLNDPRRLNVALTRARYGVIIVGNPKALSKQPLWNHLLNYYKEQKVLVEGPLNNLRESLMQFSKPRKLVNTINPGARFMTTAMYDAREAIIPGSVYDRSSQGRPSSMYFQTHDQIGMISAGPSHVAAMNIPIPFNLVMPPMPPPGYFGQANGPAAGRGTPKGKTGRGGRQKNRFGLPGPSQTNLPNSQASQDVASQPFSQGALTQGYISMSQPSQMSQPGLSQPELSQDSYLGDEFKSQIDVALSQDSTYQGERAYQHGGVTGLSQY
From the text: as §1, §2

[5] = target: the molecule itself; assay: sedimentation velocity analytical ultracentrifugation, rapid monomer-dimer equilibrium model
Description: After purifying GST-hSTAU1⁵⁵(367-476) from E. coli and removing the GST tag, SSM-‘RBD’5 migrated during gel filtration at the size of a dimer Sedimentation velocity determinations using analytical ultracentrifugation confirmed that the average weight distribution of SSM-‘RBD’5 shifted to lower Svedberg values at lower concentrations (FIG. 10C).
hSTAU1-SSM-‘RBD’5 was purified as above, except the final GF buffer contained 2.97 mM DTT, and submitted to the University of Connecticut Analytical Ultracentrifugation Facility for sedimentation velocity analysis. […] Measuring refractive index rather than absorbance was especially useful considering the low extinction coefficient at A₂₈₀ that typifies SSM-‘RBD’5; which lacks tryptophan residues. […] Data were analyzed using: 1) DcDt+, version 2.0.9 (Philo, 2000; 2006), to determine the sedimentation coefficient distribution that was independent of a model, 2) Sedfit, version 10.09beta (Schuck, 2000), to produce a model-based continuous sedimentation coefficient distribution using the Lamm equation or c(s) to identify the number of species (e.g., monomers vs dimers) in solution, and 3) Sedanal, version 5.60 to combine datasets from the three highest of four concentrations tested, perform a global analysis, and determine the protein association model using the Lamm equation.

B1: hSTAU1 ‘RBD’2-RBD3 (amino acids 43-173) (other, human, UniProt O95793-2 43-173, looked up)
chain: PLLYQVELSVGGQQFNGKGKTRQAAKHDAAAKALRILQNEPLPERLEVNGRESEEENLNKSEISQVFEIALKRNLPVNFEVARESGPPHMKNFVTKVSVGEFVGEGEGKSKKISKKNAAIAVLEELKKLPP
notes: range 43-173; Made in E. coli from pGEX-6p-1 and cut with PreScission Protease; also called product of pGEX-6p-1-hSTAU1-‘RBD’2-RBD3
binding result [1]: binds

B5: hSTAU1 SSM-‘RBD’5 (hSTAU1^55 amino acids 367-476, GST tag removed) (other)
chain: GPLGSKATVTAMIARELLYGGTSPTAETILKNNISSGHVPHGPLTRPSEQLDYLSRVQGFQVEYKDFPKNNKNEFVSLINCSSQPPLISHGIGKDVESCHDMAALNILKLLSELD
notes: Made in E. coli as a GST fusion from pGEX-6p-1, GST cleaved off; In monomer-dimer equilibrium; also called SSM-‘RBD’5(WT); hSTAU1^55(367-476)
Kd [5]: 79 µM

Results, then the binder that gave them:

binding result (hSTAU1^55-HA3 [2]): binds
B2: hSTAU1^55(R)Δ(C-Term)-FLAG (other, human, UniProt O95793-2 1-422, looked up, not shown: small tags and cut ends)
chain: MKLGKKPMYKPVDPYSRMQSTYNYNMRGGAYPPRYFYPFPVPPLLYQVELSVGGQQFNGKGKTRQAAKHDAAAKALRILQNEPLPERLEVNGRESEEENLNKSEISQVFEIALKRNLPVNFEVARESGPPHMKNFVTKVSVGEFVGEGEGKSKKISKKNAAIAVLEELKKLPPLPAVERVKPRIKKKTKPIVKPQTSPEYGQGINPISRLAQIQQAKKEKEPEYTLLTERGLPRRREFVMQVKVGNHTAEGTGTNKKVAKRNAAENMLEILGFKVPQAQPTKPALKSEEKTPIKKPGDGRKVTFFEPGSGDENGTSNKEDEFKMPYLSHQQLPAGILPMVPEVAQAVGVSQGHHTKDFTRAAPNPAKATVTAMIARELLYGGTSPTAETILKNNISSGHVPHGPLTRPSEQLDYLSRVQGFQ
notes: domain: lacks all amino acids C-terminal to ‘RBD’5 α1; End at residue 422 is read from the primer; also called product of pcI-neo-hSTAU1^55(R)Δ(C-Term)-FLAG

level co-immunoprecipitated with hSTAU1^55-HA relative to hSTAU1^55(R)-FLAG or hSTAU1^55(R)Δ(C-Term)-FLAG (hSTAU1^55-HA3 [3]): ~10% | level of co-immunoprecipitated hSTAU1^55-HA3 relative to that with hSTAU1^55(R)-FLAG or hSTAU1^55(R)Δ(C-Term)-FLAG (hSTAU1^55-HA3 [4]): ~10% | level of co-immunoprecipitated cellular hUPF1 relative to that with hSTAU1^55(R)-FLAG or hSTAU1^55(R)Δ(C-Term)-FLAG (cellular hUPF1): ~10%
B3: hSTAU1^55(R)Δ(SSM-‘RBD’5)-FLAG (other, human, UniProt O95793-2 1-363, looked up, not shown: small tags and cut ends)
chain: MKLGKKPMYKPVDPYSRMQSTYNYNMRGGAYPPRYFYPFPVPPLLYQVELSVGGQQFNGKGKTRQAAKHDAAAKALRILQNEPLPERLEVNGRESEEENLNKSEISQVFEIALKRNLPVNFEVARESGPPHMKNFVTKVSVGEFVGEGEGKSKKISKKNAAIAVLEELKKLPPLPAVERVKPRIKKKTKPIVKPQTSPEYGQGINPISRLAQIQQAKKEKEPEYTLLTERGLPRRREFVMQVKVGNHTAEGTGTNKKVAKRNAAENMLEILGFKVPQAQPTKPALKSEEKTPIKKPGDGRKVTFFEPGSGDENGTSNKEDEFKMPYLSHQQLPAGILPMVPEVAQAVGVSQGHHTKDFTRAAP
notes: domain: Δ(SSM-‘RBD’5); End at residue 363 is read from the primer; also called product of pcI-neo-hSTAU1^55(R)Δ(SSM-‘RBD’5)-FLAG

binding result (hSTAU1^55-HA3 [2]): binds
B4: hSTAU1^55(R)-FLAG (other, human, UniProt O95793-2 1-496, looked up, not shown: small tags and cut ends)
chain: MKLGKKPMYKPVDPYSRMQSTYNYNMRGGAYPPRYFYPFPVPPLLYQVELSVGGQQFNGKGKTRQAAKHDAAAKALRILQNEPLPERLEVNGRESEEENLNKSEISQVFEIALKRNLPVNFEVARESGPPHMKNFVTKVSVGEFVGEGEGKSKKISKKNAAIAVLEELKKLPPLPAVERVKPRIKKKTKPIVKPQTSPEYGQGINPISRLAQIQQAKKEKEPEYTLLTERGLPRRREFVMQVKVGNHTAEGTGTNKKVAKRNAAENMLEILGFKVPQAQPTKPALKSEEKTPIKKPGDGRKVTFFEPGSGDENGTSNKEDEFKMPYLSHQQLPAGILPMVPEVAQAVGVSQGHHTKDFTRAAPNPAKATVTAMIARELLYGGTSPTAETILKNNISSGHVPHGPLTRPSEQLDYLSRVQGFQVEYKDFPKNNKNEFVSLINCSSQPPLISHGIGKDVESCHDMAALNILKLLSELDQQSTEMPRTGNGPMSVCGRC
notes: Expressed in HEK293T cells at the level of cellular hSTAU1; also called product of pcI-neo-hSTAU1^55(R)-FLAG

— patent US20130317087A1 (UNIVERSITY OF ROCHESTER, published 2013)
